T1: human CD19 (on Raji cells, CD19+ homo sapiens Burkitt's lymphoma) (human, UniProt P15391 20-556)
T1 construct: whole, on cells; also called B-lymphocyte antigen CD19; B4
T1 sequence (looked up): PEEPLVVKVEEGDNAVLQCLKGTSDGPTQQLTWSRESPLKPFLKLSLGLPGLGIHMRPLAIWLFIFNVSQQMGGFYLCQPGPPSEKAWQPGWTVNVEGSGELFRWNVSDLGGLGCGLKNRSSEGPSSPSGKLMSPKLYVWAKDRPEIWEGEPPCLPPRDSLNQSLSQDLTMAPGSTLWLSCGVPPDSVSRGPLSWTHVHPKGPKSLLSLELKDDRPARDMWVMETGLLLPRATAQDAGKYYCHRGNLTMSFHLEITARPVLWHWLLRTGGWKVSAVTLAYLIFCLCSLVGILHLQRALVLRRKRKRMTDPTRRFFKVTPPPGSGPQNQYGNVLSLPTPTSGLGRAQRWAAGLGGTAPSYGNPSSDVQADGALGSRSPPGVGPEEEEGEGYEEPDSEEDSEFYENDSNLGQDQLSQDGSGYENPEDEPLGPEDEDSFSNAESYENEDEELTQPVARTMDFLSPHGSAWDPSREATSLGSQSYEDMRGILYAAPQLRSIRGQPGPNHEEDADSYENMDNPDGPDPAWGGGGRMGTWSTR


Experiments:
[1] = target: T1, human CD19 (on Raji cells, CD19+ homo …); assay: flow cytometry titration on Raji cells, anti-His FITC
Protocol: (§1) In brief, Raji cells were cultured and harvested by centrifugation. About 3×10⁵ cells per well were washed with PBS twice and incubated in 200 μl of serial dilutions of scFvs for 30 minutes at 4° C. After washing with PBS, secondary antibody (5 μg/ml His Tag antibody [FITC]) was added to the cells and incubated for 30 minutes at 4° C. After washing with PBS, cells were analyzed for binding EC50 by using FACSCalibur™ and FlowJo software.

[2] = target: T1, human CD19 (on Raji cells, CD19+ homo …); assay: flow cytometry titration on Raji cells, anti-His FITC; scFv at log(nM) 3
Protocol: as §1

[3] = target: T1, human CD19 (on Raji cells, CD19+ homo …); assay: flow cytometry titration on Raji cells, anti-His FITC; scFv at log(nM) 0.137273
Protocol: as §1

[4] = target: T1, human CD19 (on Raji cells, CD19+ homo …); assay: flow cytometry titration on Raji cells, anti-His FITC; scFv at log(nM) 0.614394
Protocol: as §1

[5] = target: T1, human CD19 (on Raji cells, CD19+ homo …); assay: flow cytometry titration on Raji cells, anti-His FITC; scFv at log(nM) 1.091515
Protocol: as §1

[6] = target: T1, human CD19 (on Raji cells, CD19+ homo …); assay: flow cytometry titration on Raji cells, anti-His FITC; scFv at log(nM) 1.568636
Protocol: as §1

[7] = target: T1, human CD19 (on Raji cells, CD19+ homo …); assay: flow cytometry titration on Raji cells, anti-His FITC; scFv at log(nM) 2.045758
Protocol: as §1

[8] = target: T1, human CD19 (on Raji cells, CD19+ homo …); assay: flow cytometry titration on Raji cells, anti-His FITC; scFv at log(nM) 2.522879
Protocol: as §1

[9] = target: T1, human CD19 (on Raji cells, CD19+ homo …); assay: flow cytometry titration on Raji cells, anti-His FITC; scFv at log(nM) 3.477121
Protocol: as §1

EC50 [1] | geometric mean (FACS titration) [2] | geometric mean (FACS titration) [3] | geometric mean (FACS titration) [4] | geometric mean (FACS titration) [5] | geometric mean (FACS titration) [6] | geometric mean (FACS titration) [7] | geometric mean (FACS titration) [8] | geometric mean (FACS titration) [9] | Binder
34 nM | 61.9 | 15.7 | 15.5 | 15.1 | 41.2 | 56.3 | 61.6 | 60.7 | NS-scFv (scFv, leader left out here) scFv: DIQMTQSPSSLSASVGDRVTITCRASQDISKYLNWYQQKPGKAVKLLIYHTSRLHSGVPSRFSGSGSGTDYTLTISSLQPEDIATYFCQQGNTLPYTFGGGTKLEIKGSTSGSGKPGSGEGSTKGQVQLQESGPGLVKPSETLSVTCTVSGVSLPDYGVSWIRQPPGKGLEWLGVIWGSETTYYNSALKSRLTISKDTSKNQVFLKMSSLTAADTAIYYCAKHYYYGGSYAMDYWGQGTLVTVSSHHHHHH
53.1 nM | 62.4 | 14.2 | 14 | 14.5 | 19.4 | 62.4 | 63.9 | 62.7 | AS-scFv (scFv, leader left out here) scFv: DIQMTQSPSTLSASVGDRVTITCRASQDISKYLNWYQQKPDQAPKLLIKHTSRLHSGVPSRFSGSGSGTDFTFTISSLQPEDIATYYCQQGNTLPYTFGQGTKLEIKGSTSGSGKPGSGEGSTKGQVQLQESGPGLVKPSGTLSLTCAVSGVSLPDYGVSWIRQPPGKGLEWIGVIWGSETTYYNSALKSRVTISRDNSKNTLYLQMNSLRAEDTAVYYCAKHYYYGGSYAMDYWGQGTLVTVSSHHHHHH
72.8 nM | 61.7 | 13.9 | 13.9 | 14.6 | 19.3 | 51.4 | 60.4 | 62 | SS-scFv (scFv, leader left out here) scFv: DIQMTQSPSFLSASVGDRVTITCRASQDISKYLNWYQQKPDQAPKLLIKHTSRLHSGVPSRFSGSGSGTDFTFTISSLQPEDIATYYCQQGNTLPYTFGQGTKLEIKGSTSGSGKPGSGEGSTKGEVQLVESGGGLVQPGRSLRLSCTASGVSLPDYGVSWVRQPPGKGLEWIGVIWGSETTYYNSALKSRFTISRDNSKNTLYLQMNSLRAEDTAVYYCAKHYYYGGSYAMDYWGQGTLVTVSSHHHHHH
66 nM | 59.7 | 13.4 | 13.3 | 13.6 | 25.7 | 46.6 | 58.9 | 60.2 | JS-scFv (scFv, leader left out here) scFv: DIQMTQSPSSLSASVGDRVTITCRASQDISKYLNWYQQKPDQAPKLLIKHTSRLHSGVPSRFSGSGSGTDYTLTISSLQPEDFATYYCQQGNTLPYTFGQGTKLEIKGSTSGSGKPGSGEGSTKGEVQLVESGGGLVQPGRSLRLSCTASGVSLPDYGVSWIRQPPGKGLEWIGVIWGSETTYYNSALKSRFTISRDNSKNTLYLQMNSLRAEDTAVYYCAKHYYYGGSYAMDYWGQGTLVTVSSHHHHHH
